Square brackets hold non-standard residues; d marks the D form. Ends that are not written are not given here. Tyr(3-NO2) = N[C@@H](Cc1ccc(O)c([N+](=O)[O-])c1)C(=O)O; 2Abz = Nc1ccccc1C(=O)O
Legend:
Format in all cases: biochemical
MMP-2 = target: T1, MMP-2 (Homo sapiens, UniProt P08253); test: FRET peptide cleavage efficiency with MMP-2
T1 construct: purchased SIGMA PF023
T1 sequence (P08253 110-660): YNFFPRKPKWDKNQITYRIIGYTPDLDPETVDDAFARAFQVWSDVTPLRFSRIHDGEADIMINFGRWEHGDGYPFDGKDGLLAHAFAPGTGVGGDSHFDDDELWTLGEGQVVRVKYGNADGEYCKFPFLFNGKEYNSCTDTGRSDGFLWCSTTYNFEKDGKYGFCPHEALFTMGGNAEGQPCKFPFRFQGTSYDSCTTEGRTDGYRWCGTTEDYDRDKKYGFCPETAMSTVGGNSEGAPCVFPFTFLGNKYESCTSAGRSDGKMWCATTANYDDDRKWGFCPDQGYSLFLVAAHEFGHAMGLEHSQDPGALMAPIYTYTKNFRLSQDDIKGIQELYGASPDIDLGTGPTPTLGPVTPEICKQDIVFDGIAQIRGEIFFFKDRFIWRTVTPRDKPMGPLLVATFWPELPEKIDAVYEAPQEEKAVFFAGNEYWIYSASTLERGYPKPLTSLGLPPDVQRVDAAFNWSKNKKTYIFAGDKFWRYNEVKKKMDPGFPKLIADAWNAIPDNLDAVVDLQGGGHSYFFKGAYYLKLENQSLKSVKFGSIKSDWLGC

MMP-7 = target: T2, MMP-7 (Homo sapiens, UniProt P09237); test: FRET peptide cleavage efficiency with MMP-7 (standard pH 7.5; also pH 6.5); settings: for % cleavage MMP-7 t = 15 min: t = 15 min (Table 9); for % cleavage MMP-7 t = 60 min: t = 60 min (Table 9); for % cleavage MMP-7 t = 120 min: t = 120 min (Table 9)
T2 construct: purchased SIGMA CC1059
T2 sequence (P09237 95-267): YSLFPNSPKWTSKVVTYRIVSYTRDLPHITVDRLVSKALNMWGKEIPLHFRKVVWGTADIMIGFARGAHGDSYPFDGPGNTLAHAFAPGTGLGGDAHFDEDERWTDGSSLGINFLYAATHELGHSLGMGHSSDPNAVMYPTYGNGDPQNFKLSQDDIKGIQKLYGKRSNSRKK

MMP-9 = target: T3, MMP-9 (Homo sapiens, UniProt P14780); test: FRET peptide cleavage efficiency with MMP-9 (standard pH 7.5; also pH 6.5); settings: for % cleavage MMP-9 t = 15 min: t = 15 min (Table 9); for % cleavage MMP-9 t = 60 min: t = 60 min (Table 9); for % cleavage MMP-9 t = 120 min: t = 120 min (Table 9)
T3 construct: purchased SIGMA PF024
T3 sequence (P14780 94-707): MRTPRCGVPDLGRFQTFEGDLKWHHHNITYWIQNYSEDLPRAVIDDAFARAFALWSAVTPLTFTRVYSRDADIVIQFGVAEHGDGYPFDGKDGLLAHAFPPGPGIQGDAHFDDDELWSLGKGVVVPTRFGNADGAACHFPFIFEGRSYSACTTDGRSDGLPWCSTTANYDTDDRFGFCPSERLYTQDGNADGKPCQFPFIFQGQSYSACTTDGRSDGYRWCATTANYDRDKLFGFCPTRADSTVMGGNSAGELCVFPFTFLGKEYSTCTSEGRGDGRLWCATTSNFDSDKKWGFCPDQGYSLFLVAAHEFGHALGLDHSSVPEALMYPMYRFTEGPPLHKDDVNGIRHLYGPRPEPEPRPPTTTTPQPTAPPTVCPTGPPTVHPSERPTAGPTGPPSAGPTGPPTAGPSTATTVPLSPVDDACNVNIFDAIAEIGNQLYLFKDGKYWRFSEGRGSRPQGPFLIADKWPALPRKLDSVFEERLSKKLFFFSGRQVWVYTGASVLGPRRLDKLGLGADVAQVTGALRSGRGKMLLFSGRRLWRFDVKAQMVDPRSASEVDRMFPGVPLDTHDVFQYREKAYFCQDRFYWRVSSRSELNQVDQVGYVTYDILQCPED

uPA = uPA (Homo sapiens, UniProt P00749); test: FRET peptide cleavage efficiency with uPA; settings: 200 uM linker, 1 ug/ml protease, 37° C., buffer A pH 8.5
matriptase = target: T4, matriptase (Homo sapiens, UniProt Q9Y5Y6); test: FRET peptide cleavage efficiency with matriptase; settings: 200 uM linker, 1 ug/ml protease, 37° C., buffer B pH 9.0
T4 construct: purchased R&D Systems 3946-SEB
T4 sequence (Q9Y5Y6 615-855 limits assumed): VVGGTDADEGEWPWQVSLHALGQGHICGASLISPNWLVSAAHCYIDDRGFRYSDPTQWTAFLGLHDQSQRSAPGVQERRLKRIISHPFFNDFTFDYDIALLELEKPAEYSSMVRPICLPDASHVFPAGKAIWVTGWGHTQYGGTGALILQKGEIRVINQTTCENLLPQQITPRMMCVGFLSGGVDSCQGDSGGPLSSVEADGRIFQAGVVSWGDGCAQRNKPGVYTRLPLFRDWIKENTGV

Kallikrein-3 = Kallikrein-3 (Homo sapiens, UniProt P07288); test: FRET peptide cleavage efficiency with Kallikrein-3; settings: peptide 200 uM, Kallikrein-3 2 μg/ml, 37° C., pH 8
Kallikrein-3, sequence (P07288 25-261, species assumed): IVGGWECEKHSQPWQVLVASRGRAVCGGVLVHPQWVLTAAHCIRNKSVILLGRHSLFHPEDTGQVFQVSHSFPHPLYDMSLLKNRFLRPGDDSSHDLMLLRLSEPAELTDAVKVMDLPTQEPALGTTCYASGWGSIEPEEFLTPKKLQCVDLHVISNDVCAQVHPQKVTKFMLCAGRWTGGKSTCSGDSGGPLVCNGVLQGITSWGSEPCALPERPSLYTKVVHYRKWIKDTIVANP

[1] = t = 15 min, 200 uM linker, 1 ug/ml protease, 37° C., buffer C pH 7.5
[2] = t = 60 min, 200 uM linker, 1 ug/ml protease, 37° C., buffer C pH 7.5
[3] = t = 120 min, 200 uM linker, 1 ug/ml protease, 37° C., buffer C pH 7.5

Row | % cleavage MMP-2 t = 15 min (MMP-2; t = 15 min (Table 9)) [%] | % cleavage MMP-2 t = 15 min (MMP-2; [1]) [%] | % cleavage MMP-2 t = 60 min (MMP-2; t = 60 min (Table 9)) [%] | % cleavage MMP-2 t = 60 min (MMP-2; [2]) [%] | % cleavage MMP-2 t = 120 min (MMP-2; t = 120 min (Table 9)) [%] | % cleavage MMP-2 t = 120 min (MMP-2; [3]) [%] | % cleavage MMP-7 t = 15 min (MMP-7) [%] | % cleavage MMP-7 t = 60 min (MMP-7) [%] | % cleavage MMP-7 t = 120 min (MMP-7) [%] | % cleavage MMP-9 t = 15 min (MMP-9) [%] | % cleavage MMP-9 t = 60 min (MMP-9) [%] | % cleavage MMP-9 t = 120 min (MMP-9) [%] | % cleavage uPA t = 15 min (uPA) [%] | % cleavage uPA t = 60 min (uPA) [%] | % cleavage uPA t = 120 min (uPA) [%] | % cleavage Matriptase t = 15 min (matriptase) [%] | % cleavage Matriptase t = 60 min (matriptase) [%] | % cleavage Matriptase t = 120 min (matriptase) [%] | Kallikrein-3 t = 1 h % cleavage (Kallikrein-3) [%] | Kallikrein-3 t = 3 h % cleavage (Kallikrein-3) [%] | Substance | also measured
1 | 0 | 0 | 0 | 0 | 0 | 0 | 0 | 0 | 0 | 0 | 0 | 0 | 0 | 0 | 0 | 0 | 0 | 0 | 0 | 0 | GSGSGSGS ([2Abz]GSGSGSGS[Tyr(3-NO2)]-NH2) [LNK064] | Kallikrein-3 t = 6 h % cleavage (Kallikrein-3): 0%; Kallikrein-3 t = 8 h % cleavage (Kallikrein-3): 0%
2 | 23 | 23 | 74 | 74 | 100 | 100 | 0 | 0 | 0 | 0 | 0 | 0 | 0 | 0 | 0 | 0 | 0 | 0 | 0 | 0 | HSSKLQYFGKL ([2Abz]HSSKLQYFGKL[Tyr(3-NO2)]-NH2) [LNK061] | Kallikrein-3 t = 6 h % cleavage (Kallikrein-3): 0%; Kallikrein-3 t = 8 h % cleavage (Kallikrein-3): 0%
3 | 1 | 1 | 2 | 2 | 4 | 4 | 0 | 0 | 0 | 0 | 0 | 0 | 0 | 0 | 0 | 60 | 100 | 100 | 8 | 31 | RGRRHSSKLQ ([2Abz]RGRRHSSKLQ[Tyr(3-NO2)]-NH2) [LNK052] | Kallikrein-3 t = 6 h % cleavage (Kallikrein-3): 55%; Kallikrein-3 t = 8 h % cleavage (Kallikrein-3): 67%
4 | 71 | 71 | 100 | 100 | 100 | 100 | 0 | 0 | 0 | 41 | 100 | 100 | 0 | 0 | 0 | 66 | 100 | 100 | 28 | 79 | RGRRHSSKLQPLGYFGKL ([2Abz]RGRRHSSKLQPLGYFGKL[Tyr(3-NO2)]-NH2) [LNK062] | Kallikrein-3 t = 6 h % cleavage (Kallikrein-3): 100%; Kallikrein-3 t = 8 h % cleavage (Kallikrein-3): 100%
5 | 16 | 16 | 60 | 60 | 86 | 86 | 0 | 0 | 0 | 1 | 5 | 10 | 2 | 9 | 19 | 8 | 33 | 56 | 49 | 83 | RSSYRSL ([2Abz]RSSYRSL[Tyr(3-NO2)]-NH2) [LNK075] | Kallikrein-3 t = 6 h % cleavage (Kallikrein-3): 94%; Kallikrein-3 t = 8 h % cleavage (Kallikrein-3): 100%
6 | 82 | 82 | 100 | 100 | 100 | 100 | 2 | 3 | 0 | 23 | 93 | 100 | 0 | 0 | 0 | 9 | 35 | 62 | 7 | 20 | SGRHSSKLQPLGYFGKL ([2Abz]SGRHSSKLQPLGYFGKL[Tyr(3-NO2)]-NH2) [LNK063] | Kallikrein-3 t = 6 h % cleavage (Kallikrein-3): 37%; Kallikrein-3 t = 8 h % cleavage (Kallikrein-3): 45%
